{
  "source": "a protein production outcome set (Wang et al. 2014)",
  "data": [
    {"test": "label from the status in PepcDB records", "values": [
      {"sequence": "MESIEQQLTELRTTLRHHEYLYHVMDAPEIPDAEYDRLMRELRELETKHPELITPDSPTQRVGAAPLAAFSQIRHEVPMLSLDNVFDEESFLAFNKRVQDRLKNNEKVTWCCELKLDGLAVSILYENGVLVSAATRGDGTTGEDITSNVRTIRAIPLKLHGENIPARLEVRGEVFLPQAGFEKINEDARRTGGKVFANPRNAAAGSLRQLDPRITAKRPLTFFCYGVGVLEGGELPDTHLGRLLQFKKWGLPVSDRVTLCESAEEVLAFYHKVEEDRPTLGFDIDGVVIKVNSLAQQEQLGFVARAPRWAVAFKFPAQEQMTFVRDVEFQVGRTGAITPVARLEPVHVAGVLVSNATLHNADEIERLGLRIGDKVVIRRAGDVIPQVVNVVLSERPEDTREVVFPTHCPVCGSDVERVEGEAVARCTGGLICGAQRKESLKHFVSRRAMDVDGMGDKIIDQLVEKEYVHTPADLFKLTAGKLTGLERMGPKSAQNVVNALEKAKETTFARFLYALGIREVGEATAAGLAAYFGTLEALEAASIEELQKVPDVGIVVASHVHNFFAEESNRNVISELLAEGVHWPAPIVINAEEIDSPFAGKTVVLTGSLSQMSRDDAKARLVELGAKVAGSVSKKTDLVIAGEAAGSKLAKAQELGIEVIDEAEMLRLLGS", "protein production": "not failed"},
      {"sequence": "MESITLDIELLQLPETSPMSMKSNQDFVKKLFDQWLALPETNRLVTSLVNDAKAGVALNVMCGGGSSGTNSGSNSPLASMFPARNGPPLSPRNSTGSPRIARQRTGLSNLSSPLKVVSDHVKELIPQFYFEDGRPPPNDLKEQCIAKINSLFYGHEDGLQLQEFKLVTTEICKVPSFFSTSIFKKVDTNNTGFVKREDFIDYWVKGNMLTKEITSQVFTILKQPDHNYLVQDDFKPVLQELLATHPGLEFLQGTPEFQDRYAETVIYRIYYYINRSGNGHLTLRELKRGNLVDAMQHADEEEDINKVLRYFSYEHFYVIYCKFWELDTDHDFLIDKENLIRYSNHALTYRIVDRIFSQVPRKFTSKTEGKMGYEDFVYFILAEEDKSSEPSLEYWFKCIDLDANGVLTRNELQFFYEEQLHRMECMAQEAVLFEDILCQLFDMVKPEDEGFICLNDLKGSKLSGNVFNILFNLNKFMAFETRDPFLIRQERANPTWTEWDRFAHREYIRLSMEEDVEDASNGSAEAWDDSLEVPF", "protein production": "failed"},
      {"sequence": "MESLIGLVNRIQRACTVLGDYGGGTGSNAFNSLWEALPTVAVVGGQSSGKSSVLESIVGRDFLPRGSGIVTRRPLVLQLHKTDDGTEEYAEFLHLPKKQFTDFALVRREIQDETDRITGKNKQISPVPIHLSIYSPNVVNLTLIDLPGLTKVAVEGQPETIAEDIESMVRTYVDKPNCIILAISPANQDIATSDAIKLAKDVDPTGERTFGVLTKLDLMDKGTNALEVLEGRSYRLQHPWVGIVNRSQADINKNVDMMLARRKEREYFDTSPDYGHLASKMGSEYLAKLLSKHLESVIRTRIPSILSLINKSIEELERELDRMGRPVAVDAGAQLYTILEMCRAFDKIFKEHLDGGRPGGDRIYGVFDNQLPAALKKLPFDRHLSLQSVKKIVSEADGYQPHLIAPEQGYRRLIEGALGYFRGPAEASVDAVHYVLKELVRKSISETEELKRFPSLQVELAAAANSSLEKFREESKKSVIRLVDMESAYLTAEFFRKLPQEIERPVTNSKNQTASPSSATLDQYGDGHFRRIASNVSAYVNMVSDTLRNTIPKACVYCQVRQAKLALLNYFYSQISKREGKQLGQLLDEDPALMDRRLECAKRLELYKKARDEIDAVAWVR", "protein production": "failed"},
      {"sequence": "MESLLRADQTLIPGAMCSRRVWTHSELALPSVSVTELDLVRGLLQALQGLSSPFLFWDQTGQTFRAKSHIRVSHLSHSSLHVLLAGFLYPATCLKLVESIVAAINTSLRSPPTLMAFSDSVSAWLEANIALKEEVMIDNSDITVTPTLLGLTSAEYLLQVVHGAIPHTFFDSNSTISAAEIAVHVLDYLYKKLDEVCLVQGGEVEGFHMLLQMFAGSLLPYIEGLDSWLFEGTLDDPCEELFFTANQSVSVDDAEFWEKSYQLMKVPNSKSNVTSLNEKKVMSGHDANSSLASDKDKEQNTRVLCPLFIKDICKSIVSAGKSLQLMQHIPSTSSENSGKTQFHGRNGYGKSSVGSLLTKMSSCSSTADLSLSEVFCLTLAGLIGHGDHVSRYLWKDEADEWEISPTLASYISGELVNDMDNKDLPVLTCSERMWYKLLVGAVQEKRAMEAKSELQSACYATGVKDGNSGLTAQKALQGLFCNENLVVSVSKMDLERNRNAWNVLNLSQNYCLPSLNDESLLSAVFEESGMADAGLSGTNYKFGFQFGRSEYISSQDDTNLLETLFPFPTLLPSFQAEPMDTRLPVVIMQECFTIYIRRQVDYIGKVILSKLMNDWKLMHELAVLRAIYLLGSGDLLQHFLTVIFDRLGKGESSNDDFELNIILQESIRNSADAMLLSSPDSLVVSISREDRDKDDKGDIIPLSSTRKSRVNSFGIDCLESLKFTYKVPWPLELIANSEAIKKYNQVKRAKYVLDKARRWMWKGKGSATKIRKHHWLLEQKLLNFVDAFHQYVMDRVYHTAWRELCEAMVKAGSLDEVIYVHETYLLSIQRQCFVVQEKLWAIIASRINMILGLALEFYSIQQTLSSGGAVSAIKARCEMEIDRIEKQFEDCIAFLLRVLSSKLNVGHFPHLADLVTRINYNYHYMSDTGSLMTTSGAETNSSRPWTAKSDV", "protein production": "failed"},
      {"sequence": "MESPHAADPEGIDPQVVELATTIFALARAGDTASLDAYIRAGVPANLTNDQGDTLVMLAAYYGHADTVECLCRHGADVNRLNDRGQSPLAGAVFKDEDAVVKTLLAHGADPTLGQPSAIDTARMFGKEHYLELFDNA", "protein production": "failed"},
      {"sequence": "MESPTQTSEHIESMTEFLVKHYPDQLREISLSSDPKLHYPLFIEYAELVDDNPSLARQVFSDPEHYLRQFDDSAILAHKIALEHMKKFEEKIGIEKRFIHVRINTSGSPLERSPETFPSIGRVRVKHRGILMMLKGTVIRSGAVKMYEGEKMYRCRKCKHMFPIFPELESINSIVKPPFCPSQRSKACEGTNFDPVDDTVTRHDYQEIKIQENTQVLGVGVIPRSILVVLKDDLVDNVKAGDDVVVSGILTSKWSHDLKDVRCDLEPMLIANHVRRTNELKSEIDISDDLIEKFKNFWSHFRDTPLKGRNAILRGICPQVFGLFTVKLAVALTLIGGVQHVDASGTKVRGESHLLLIGDPGTGKSQFLKFAAKLSNRAVITTGLGSTSAGLTVTAVKDGGEWMLEAGALVLADGGLCCIDEFDSMREHDRATIHEAMEQQSISVAKAGLVTTLSTKTIVFGATNPKGQYDPDQYTKNPEWDAVVSSHILAEVQIEQDREVDDLTTIWPLPMLQRYIQFVKKNFRPVLSKEAEEIISSYYRLQRRSSTHNAARTTVRMLESLIRLAQGTSSVIVFINQNTPKTGTKERILMVLWCHAAHARLMFRNEVTRLDAITAILCIESSMTISAIVDSMGNALHSNFSEEPDQECILFRH", "protein production": "failed"},
      {"sequence": "MESQLTLITLTLVIATIFGVALSRFRISPIPAYLIAGLLGKSFGLDYSSDLFNFLSTLAINLVSFNVGISLDIRELKNILSKATIIAITEYIVGFTIISIISLIIGLPFYDTFILTIISVTTSTTITYKLIQNKIDDKQSGLILAVLSLEDVITFIALGVILSSNSNIVEIIPTSLASLGLGYLVSRTIINRSINTSEESVIISSIASVLSFSLLGQIFDIPSTLANFLLGLGASYALKDTKKVSRILSPLIDFSLIFFFFSAGSYLNLSLSSLYVLVPISLIMTLVKYLSFSTSYWLTGSNFLVAFRSGIYMTSLSELGIIVALNAFQQGIITSLVYNLSAFLVMMSSTITSITVPRERRIIGLISKTYEKLRIDRIDGALQRITRVVKLNRNTTSNFILRFILIGLITIFSASYLLIFLVSFARFFIYIAPLISVLVPFLLALLVIEETRRLSNLGQKRINEIILWIIYVFITINFEIFIVRIISELNYYVIYLGILVSIIVIVIMYQRLNTFIKELDKSL", "protein production": "failed"},
      {"sequence": "MESSKKMDSPGALQTNPPLKLHTDRSAGTPVFVPEQGGYKEKFVKTVEDKYKCEKCHLVLCSPKQTECGHRFCESCMAALLSSSSPKCTACQESIVKDKVFKDNCCKREILALQIYCRNESRGCAEQLTLGHLLVHLKNDCHFEELPCVRPDCKEKVLRKDLRDHVEKACKYREATCSHCKSQVPMIALQVSLLQNESVEKNKSIQSLHNQICSFEIEIERQKEMLRNNESKILHLQRVIDSQAEKLKELDKEIRPFRQNWEEADSMKSSVESLQNRVTELESVDKSAGQVARNTGLLESQLSRHDQMLSVHDIRLADMDLRFQVLETASYNGVLIWKIRDYNRRKQEAVMGKTLSLYSQPFYTGYFGYKMCARVYLNGDGMGKGTHLSLFFVIMRGEYDALLPWPFKQKVTLMLMDQGSSRRHLGDAFKPDPNSSSFKKPTGEMNIASGCPVFVAQTVLENGTYIKDDTIFIKVIVDTSDLPDP", "protein production": "not failed"},
      {"sequence": "MESTKSNDIPILRNVSDSFSDHYGKYLQRCGIFVPKDGDSSGPDAYVVFHNGQTRYVVAFSFTFYHKTEFSKRDIEKEAEQFFQEVISVLNDGSPSSVQLCFQFVVVCTRYDRSVVFSSEEQNIVEDASYLVTEHSAGSTLNESRRSCLQLVVVSQRNLERFLGRENFDILRKIGKASREEFRKDFSVWCKTVFESMSDEYVSPLEAKPFNVTLRVARNIRPRTNEENRMQMEGFQTAMQVEEGNTRGEQRVAASSSLSSSFDWNTFLREYCGLSEEDVAYCLPKVEDIDMDELPAVTKEILRDLGIDKPALRLKIRSSIRSYLANER", "protein production": "failed"},
      {"sequence": "MESVKTGKTNKVGKNTEMANTKANKETHFKQVSAITNIIRSVGGFFTKIAKRVRGLVKKHPKKSSAALVVLTHIACKKAKELDDKVQDKSKQAEKENQINWWKYSGLTIAASLLLAACSAGDTDKQIELEQEKKEAENARDRANKSGIELEQERQKTNKSGIELANSQIKAEQERQKTEQEKQKANKSAIELEQQKQKTINTQRDLIKEQKDFIKETEQNCQENHNQFFIKKLGIKGGIAIEVEAECKTPKPAKTNQTPIQPKHLPNSKQPHSQRGSKAQEFIAYLQKELEFLPYSQKAIAKQVNFYKPSSIAYLELDPRDFKVTEEWQKENLKIRSKAQAKMLEMRDLKPDPQAHLPTSQSLLFVQKIFADVNKEIEAVANTEKKAEKAGYGYSKRM", "protein production": "failed"},
      {"sequence": "MESVYLFSSGTLKRKANTICLETESGRKYIPVENVMDIKVFGEVDLNKRFLEFLSQKRIPIHFFNREGYYVGTFYPREYLNSGFLILKQAEHYINQEKRMLIAREIVSRSFQNMVDFLKKRKVRADSLTRYKKKAEEASNVSELMGIEGNAREEYYSMIDSLVSDERFRIEKRTRRPPKNFANTLISFGNSLLYTTVLSLIYQTHLDPRIGYLHETNFRRFSLNLDIAELFKPAVVDRLFLNLVNTRQINEKHFDEISEGLMLNDEGKSLFVKNYEQALRETVFHKKLNRYVSMRSLIKMELHKLEKHLIGEQVFGSEE", "protein production": "not failed"},
      {"sequence": "METAICGRLALAPSSLFNSKSGDKHLVSKGPCVNRSILMTLSTSAALGKGGGVLDKPIIEKTTPGRESEFDLRKSKKIAPPYRVILHNDNFNKREYVVQVLMKVIPGMTVDNAVNIMQEAHINGLAVVIVCAQADAEQHCMQLRGNGLLSSVEPDGGGC", "protein production": "failed"},
      {"sequence": "METLLIQQTEKSNKFWKIVVKEKDYVVFYGKIGTAGSVKAKEFETEEECMNEANKLVASKRKKGYIDPLPGEDYIKEKTITEEEFWELLHRAKTKGEDQEEQIEWLTSHLAKRTVHEIVAFDTHMHSLLKDSYTSRLWAAAYIIMGGCSDDTFDYFRGWLLYQGKETYEACIEDPERLIPVLENLSEYDVPEIEELSLYFGFTVYAEKTGDEDDTYFTLYHVLSNEEFDDVDFEFDWNEDDEEGLKKVFPRLWEMYGEEPIEWLEHHHHHH", "protein production": "not failed"},
      {"sequence": "METNFSIPLNETEEVLPEPAGHTVLWIFSLLVHGVTFVFGVLGNGLVIWVAGFRMTRTVNTICYLNLALADFSFSAILPFRMVSVAMREKWPFGSFLCKLVHVMIDINLFVSVYLITIIALDRCICVLHPAWAQNHRTMSLAKRVMTGLWIFTIVLTLPNFIFWTTISTTNGDTYCIFNFAFWGDTAVERLNVFITMAKVFLILHFIIGFSVPMSIITVCYGIIAAKIHRNHMIKSSRPLRVFAAVVASFFICWFPYELIGILMAVWLKEMLLNGKYKIILVLINPTSSLAFFNSCLNPILYVFMGRNFQERLIRSLPTSLERALTEVPDSAQTSNTDTTSASPPEETELQAM", "protein production": "failed"}
    ]}
  ]
}
